In the Human Domainome abundance scans (Beltran et al. 2025):
± gives the uncertainty stated by the source.

B1: Proto-oncogene vav, residues 782 to 842; numbered along this chain, P15498 (parent)
chain: KYFGTAKARYDFCARDRSELSLKEGDIIKILNKKGQQGWWRGEIYGRVGWFPANYVEEDYS

Variants of: B1
Assay: abundance fitness (aPCA) (normalised: wild type 0, dead -1); higher = more abundant; growth selection in yeast, the domain comes from the species named
Details: Homo sapiens

Variant	abundance fitness
T5A	-0.084 ± 0.067
T5C	-0.152 ± 0.11
T5E	-0.25 ± 0.11
T5F	0.168 ± 0.13
T5H	-0.094 ± 0.12
T5I	-0.248 ± 0.14
T5K	-0.468 ± 0.14
T5L	-0.099 ± 0.069
T5M	-0.209 ± 0.096
T5P	-0.401 ± 0.12
T5R	-0.209 ± 0.059
T5S	-0.179 ± 0.077
T5V	-0.159 ± 0.065
T5W	-0.178 ± 0.088
T5Y	-0.064 ± 0.13
A6C	-0.115 ± 0.068
A6D	-0.679 ± 0.12
A6E	-0.904 ± 0.24
A6F	-0.694 ± 0.11
A6H	-0.677 ± 0.13
A6I	-0.852 ± 0.13
A6K	-0.725 ± 0.24
A6M	-0.733 ± 0.19
A6N	-0.905 ± 0.15

Variant	abundance fitness
A6P	-0.832 ± 0.2
A6S	-0.654 ± 0.073
A6T	-0.883 ± 0.14
A6V	-0.214 ± 0.054
A6Y	-0.264 ± 0.069
K7A	-0.475 ± 0.1
K7C	-0.04 ± 0.14
K7D	-0.766 ± 0.39
K7E	-0.511 ± 0.12
K7G	-0.629 ± 0.13
K7H	-0.233 ± 0.21
K7I	-0.232 ± 0.17
K7L	-0.191 ± 0.058
K7M	0.006 ± 0.11
K7N	-0.797 ± 0.42
K7P	-0.97 ± 0.29
K7Q	-0.093 ± 0.094
K7S	-0.381 ± 0.089
K7V	-0.152 ± 0.083
K7W	-0.407 ± 0.099
K7Y	-0.133 ± 0.16
A8C	-0.582 ± 0.2
A8D	-0.864 ± 0.38
A8E	-0.745 ± 0.14

Variant	abundance fitness
A8F	-0.785 ± 0.26
A8G	-0.953 ± 0.11
A8H	-0.62 ± 0.21
A8I	-0.535 ± 0.23
A8L	-0.731 ± 0.14
A8M	-0.727 ± 0.26
A8P	-0.606 ± 0.13
A8Q	-0.956 ± 0.35
A8R	-0.903 ± 0.12
A8T	-0.756 ± 0.19
A8V	-0.035 ± 0.069
A8W	-1.04 ± 0.32
A8Y	-0.708 ± 0.38
R9C	-0.356 ± 0.11
R9E	-0.614 ± 0.25
R9F	0.05 ± 0.18
R9G	-0.75 ± 0.12
R9H	-0.505 ± 0.22
R9I	-0.296 ± 0.13
R9K	0.072 ± 0.097
R9M	-0.027 ± 0.081
R9N	-0.282 ± 0.15
R9P	-0.972 ± 0.3
R9S	-0.34 ± 0.088

Variant	abundance fitness
R9T	-0.086 ± 0.096
R9W	-0.737 ± 0.2
R9Y	-0.821 ± 0.27
Y10A	0.029 ± 0.064
Y10C	-0.338 ± 0.1
Y10D	-0.305 ± 0.11
Y10E	-0.13 ± 0.099
Y10G	-0.177 ± 0.05
Y10H	0.079 ± 0.13
Y10I	-0.115 ± 0.1
Y10K	0.047 ± 0.11
Y10L	-0.122 ± 0.07
Y10M	0.098 ± 0.11
Y10N	-0.393 ± 0.24
Y10P	-0.847 ± 0.18
Y10Q	0.107 ± 0.11
Y10S	0.044 ± 0.059
Y10V	-0.184 ± 0.068
Y10W	-0.116 ± 0.087
D11A	-0.103 ± 0.08
D11C	-0.264 ± 0.15
D11E	-0.159 ± 0.098
D11F	-0.901 ± 0.28
D11G	-0.258 ± 0.07

Variant	abundance fitness
D11H	-0.503 ± 0.14
D11I	-0.693 ± 0.49
D11K	-0.362 ± 0.12
D11L	-0.607 ± 0.074
D11M	-0.35 ± 0.091
D11N	0.086 ± 0.07
D11P	-0.284 ± 0.1
D11Q	-0.363 ± 0.14
D11S	-0.251 ± 0.084
D11T	-0.316 ± 0.1
D11V	-0.587 ± 0.095
D11W	-0.715 ± 0.16
D11Y	-0.441 ± 0.28
F12A	-0.537 ± 0.12
F12C	-0.83 ± 0.37
F12E	-1.01 ± 0.29
F12G	-0.977 ± 0.16
F12H	-0.029 ± 0.44
F12I	-0.536 ± 0.25
F12K	-1.01 ± 0.44
F12L	-0.813 ± 0.15
F12M	-0.827 ± 0.28
F12N	-0.671 ± 0.32
F12P	-1.13 ± 0.38

Variant	abundance fitness
F12Q	-0.553 ± 0.28
F12R	-0.365 ± 0.066
F12S	-0.886 ± 0.2
F12T	-0.952 ± 0.43
F12V	-0.763 ± 0.13
F12W	-0.114 ± 0.075
C13A	-0.063 ± 0.066
C13D	-0.28 ± 0.14
C13E	0.12 ± 0.086
C13F	-0.006 ± 0.11
C13G	-0.285 ± 0.062
C13H	-0.131 ± 0.24
C13I	-0.108 ± 0.13
C13K	-0.201 ± 0.11
C13L	-0.058 ± 0.057
C13M	-0.119 ± 0.086
C13N	0.123 ± 0.2
C13P	-0.178 ± 0.1
C13Q	0.098 ± 0.15
C13R	0.025 ± 0.063
C13S	0.028 ± 0.06
C13T	0.146 ± 0.1
C13V	0.1 ± 0.054
C13W	-0.087 ± 0.089

Variant	abundance fitness
C13Y	-0.198 ± 0.12
A14C	-0.83 ± 0.38
A14E	-0.873 ± 0.26
A14F	-0.804 ± 0.24
A14H	-0.562 ± 0.23
A14K	-0.692 ± 0.18
A14L	-1.03 ± 0.19
A14M	-0.931 ± 0.23
A14N	-0.742 ± 0.34
A14P	-0.355 ± 0.12
A14Q	-0.541 ± 0.12
A14S	-0.237 ± 0.072
A14T	-0.54 ± 0.15
A14V	-0.889 ± 0.15
A14W	-0.649 ± 0.14
A14Y	-0.328 ± 0.16
R15A	-0.418 ± 0.12
R15C	-0.444 ± 0.15
R15D	-0.466 ± 0.32
R15F	-0.78 ± 0.23
R15G	-0.316 ± 0.07
R15H	-0.293 ± 0.31
R15K	-0.169 ± 0.13
R15M	-0.507 ± 0.14

Variant	abundance fitness
R15N	-0.411 ± 0.19
R15P	-0.925 ± 0.37
R15Q	-0.26 ± 0.11
R15S	-0.386 ± 0.089
R15T	-0.181 ± 0.1
R15V	-0.471 ± 0.093
R15Y	-0.414 ± 0.14
D16E	-0.225 ± 0.11
D16F	-0.618 ± 0.17
D16G	-0.11 ± 0.071
D16H	0.022 ± 0.11
D16K	-0.174 ± 0.12
D16L	-0.418 ± 0.072
D16M	-0.499 ± 0.2
D16P	-0.839 ± 0.22
D16Q	-0.108 ± 0.11
D16R	-0.112 ± 0.064
D16S	0 ± 0.069
D16T	-0.135 ± 0.091
D16V	-0.308 ± 0.071
D16W	-0.617 ± 0.081
D16Y	-0.445 ± 0.13
R17A	0.056 ± 0.072
R17C	0.1 ± 0.18

Variant	abundance fitness
R17D	-0.046 ± 0.12
R17E	-0.027 ± 0.11
R17F	-0.315 ± 0.15
R17G	-0.012 ± 0.09
R17H	-0.076 ± 0.15
R17K	0.065 ± 0.12
R17L	0.035 ± 0.065
R17M	-0.06 ± 0.1
R17N	0.061 ± 0.16
R17P	0.031 ± 0.11
R17Q	-0.044 ± 0.1
R17T	-0.027 ± 0.12
R17V	-0.014 ± 0.058
R17W	-0.223 ± 0.11
R17Y	0.107 ± 0.16
S18A	0.064 ± 0.08
S18C	-0.364 ± 0.13
S18D	-0.169 ± 0.2
S18E	-0.277 ± 0.12
S18G	-0.194 ± 0.081
S18H	-0.096 ± 0.21
S18K	-0.239 ± 0.13
S18L	-0.368 ± 0.073
S18M	-0.271 ± 0.091

Variant	abundance fitness
S18N	0.024 ± 0.16
S18P	-0.794 ± 0.23
S18Q	-0.451 ± 0.15
S18R	-0.156 ± 0.057
S18T	-0.068 ± 0.1
S18V	-0.599 ± 0.11
S18W	-0.258 ± 0.084
S18Y	-0.158 ± 0.14
E19A	-1 ± 0.34
E19C	-0.502 ± 0.14
E19D	-0.654 ± 0.25
E19F	-0.657 ± 0.28
E19G	-0.678 ± 0.14
E19H	-0.137 ± 0.21
E19K	-0.885 ± 0.22
E19L	-0.593 ± 0.098
E19M	0 ± 0.1
E19Q	-0.103 ± 0.19
E19R	-1.08 ± 0.32
E19S	-0.417 ± 0.094
E19T	-0.838 ± 0.19
E19V	-0.922 ± 0.2
E19W	-0.445 ± 0.15
E19Y	-0.763 ± 0.38

Variant	abundance fitness
L20A	-0.768 ± 0.19
L20C	-0.966 ± 0.45
L20E	-0.852 ± 0.46
L20F	-0.937 ± 0.31
L20G	-0.927 ± 0.18
L20I	-0.342 ± 0.21
L20K	-0.673 ± 0.24
L20M	-0.756 ± 0.19
L20N	-0.691 ± 0.35
L20Q	-1.05 ± 0.39
L20R	-0.883 ± 0.15
L20S	-0.825 ± 0.13
L20T	-0.642 ± 0.19
L20V	-0.577 ± 0.1
L20W	-0.919 ± 0.24
L20Y	-0.64 ± 0.25
S21A	-0.26 ± 0.077
S21C	-0.445 ± 0.13
S21D	0.153 ± 0.19
S21E	-0.049 ± 0.12
S21F	-0.607 ± 0.15
S21G	-0.34 ± 0.09
S21H	-0.243 ± 0.15
S21I	-0.378 ± 0.26

Variant	abundance fitness
S21K	-0.627 ± 0.17
S21L	-0.653 ± 0.1
S21N	-0.333 ± 0.16
S21P	-0.36 ± 0.13
S21Q	-0.594 ± 0.15
S21R	-0.742 ± 0.13
S21T	-0.265 ± 0.12
S21V	-0.895 ± 0.16
S21Y	-0.513 ± 0.22
L22A	-0.494 ± 0.12
L22C	-0.405 ± 0.2
L22F	0.176 ± 0.1
L22H	-0.456 ± 0.2
L22I	0.016 ± 0.11
L22K	-0.857 ± 0.26
L22M	-0.13 ± 0.1
L22N	-0.91 ± 0.35
L22P	-0.971 ± 0.27
L22Q	-1.07 ± 0.41
L22R	-0.791 ± 0.11
L22S	-0.852 ± 0.13
L22V	-0.332 ± 0.12
L22W	-0.888 ± 0.24
K23A	-0.222 ± 0.084

Variant	abundance fitness
K23E	-0.613 ± 0.31
K23F	-0.585 ± 0.17
K23G	-0.815 ± 0.16
K23H	-0.142 ± 0.12
K23I	-0.524 ± 0.19
K23L	-0.585 ± 0.097
K23M	-0.207 ± 0.11
K23N	-0.576 ± 0.2
K23P	-0.907 ± 0.25
K23Q	-0.221 ± 0.12
K23S	-0.168 ± 0.078
K23T	-0.237 ± 0.12
K23W	-0.816 ± 0.2
K23Y	-0.232 ± 0.24
E24A	0.082 ± 0.062
E24C	-0.091 ± 0.051
E24D	-0.361 ± 0.076
E24F	-0.575 ± 0.077
E24G	-0.262 ± 0.053
E24H	-0.13 ± 0.098
E24I	-0.124 ± 0.066
E24K	-0.01 ± 0.11
E24L	-0.809 ± 0.13
E24M	-0.009 ± 0.094

Variant	abundance fitness
E24N	-0.118 ± 0.082
E24P	-0.111 ± 0.096
E24Q	-0.072 ± 0.13
E24R	0.068 ± 0.051
E24S	-0.056 ± 0.046
E24T	-0.01 ± 0.077
E24V	0.045 ± 0.049
E24W	-0.92 ± 0.25
E24Y	-0.231 ± 0.062
G25A	-0.721 ± 0.18
G25C	-0.895 ± 0.28
G25D	-0.518 ± 0.17
G25F	-0.786 ± 0.28
G25H	-0.975 ± 0.34
G25L	-0.904 ± 0.12
G25M	-0.742 ± 0.12
G25N	-0.675 ± 0.27
G25P	-0.615 ± 0.14
G25Q	-0.957 ± 0.41
G25R	-0.667 ± 0.091
G25S	-0.818 ± 0.12
G25T	-0.97 ± 0.23
